Assay results published in patent publication US20040172671A1, “Transgenic plants protected against parasitic plants” (priority 2001, published 2004).

What was measured:
[1] = test system: Orobanche aegyptiaca seeds; assay: Petri dish assay: effect of SLP on O. aegyptiaca seed germination and radicle elongation; assay type: in vivo
Protocol: The effect of the direct application of the lytic toxin Sarcotoxin IA (SLP) to seeds of the parasitic plant O. aegyptiaca was assayed. SLP was obtained by production in S. cerevisiae, and applied to seeds during both preconditioning and germination stages as follows: Yeast strain Y426-MATa yeast cells transformed with a yeast shuttle vector-pFL61 to express the sarcotoxin IA were cultured in -URA liquid media at 30° C. for 72 h as described in Aly et al. (1999). The cultures were then centrifuged for 5 min at 4000 g and the supernatant collected for SLP assay. Quantitative evaluation of the SLP concentration present in the growth media was obtained by Western blot analysis. The effect of SLP on O. aegyptiaca seeds was determined in a Petri dish assay. Parasite seeds were surface-sterilized, dispersed on Whatman GF/A glass-fiber (0.7 cm diam.), covered with the same filter, and placed in a Petri dish. […] After incubation in dark at 26° C. for 7 days, seeds were rated for radicles damage.

[2] = test system: several bacteria, including plant pathogenic bacteria; conditions: SLP secreted from yeast cells (Aly et al, 1999); cited from earlier work
[3] = SLP 10 μM applied at germination (three days after GR24)
[4] = SLP 20 μM applied at germination
[5] = SLP 20 μM applied at preconditioning
[6] = SLP 30 μM applied at germination
[7] = SLP 30 μM applied at preconditioning
[8] = SLP 40 μM applied at germination
[9] = SLP 40 μM applied at preconditioning

B1: sarcotoxin IA (protein, listed as Sarcophaga peregrina)
chain: MNFQNIFIFVALILAVFAGQSQAGWLKKIGKKIERVGQHTRDATIQGLGIAQQAANVAATARG
[1]; [3]
  Gemination (% of control): 80 ± 6 % of control
  Radicle length (% of control): 65 ± 5 % of control
[1]; SLP 10 μM applied at preconditioning (mixed with GR24)
  Radicle length (% of control): 65 ± 6 % of control
[1]; SLP 10 μM applied at preconditioning (mixed with GR24), 7 days, 26° C., dark
  Gemination (% of control): 76 ± 3 % of control
[1]; [4]
  Gemination (% of control): 76 ± 8 % of control
  Radicle length (% of control): 47 ± 3 % of control
[1]; [5]
  Gemination (% of control): 69 ± 6 % of control
  Radicle length (% of control): 52 ± 2 % of control
[1]; [6]
  Gemination (% of control): 43 ± 7 % of control
  Radicle length (% of control): 33 ± 4 % of control
[1]; [7]
  Gemination (% of control): 6 ± 1 % of control
  Radicle length (% of control): 12 ± 8 % of control
[1]; [8]
  Gemination (% of control): 36 ± 2 % of control
  Radicle length (% of control): 4 ± 1 % of control
[1]; [9]
  Gemination (% of control): 0 % of control
  Radicle length (% of control): 0 % of control
[1]; presence of SLP, in words
  radicle elongation and seed germination of the parasite: significantly reduced
[2]
  cytotoxic effect against bacteria: potent cytotoxic effect
